The values below come from patent US20240026407A1, “MODIFICATION OF SAPONINS” (GLAXOSMITHKLINE BIOLOGICALS SA, priority 2020, published 2024).

Type in all cases: biochemical, Quillaja saponaria
Test [1] is described as follows: Experiment 6-1: screening of rhamnosidases for derhamnosylation of saponins in treated bark extract (2%), QS-17 2296 to QS-18 2150 (PAR %). To be noted: TBE 2%, pH 7.5, 30 degC, 18 h; TIC peak area ratio percent of rhamnosylated starting saponin to derhamnosylated product, LCMS/MS; negative controls 4.876, 5.225.
A short description of test [2]: Experiment 6-1: screening of rhamnosidases for derhamnosylation of saponins in treated bark extract (2%), desglucosyl-QS-17 2134 to QS-21 1988 (PAR %). To be noted: TBE 2%, pH 7.5, 30 degC, 18 h; TIC peak area ratio percent, LCMS/MS; negative controls 2.719, 2.158.
Test [3] in a line: Experiment 6-1: screening of rhamnosidases for derhamnosylation of saponins in treated bark extract (2%), QS-17 2310 to QS-18 2164 (PAR %). To be noted: TBE 2%, pH 7.5, 30 degC, 18 h; TIC peak area ratio percent, LCMS/MS; negative controls 3.061, 2.429.
Test [4] is described as follows: Experiment 6-1: specificity of rhamnosidases towards other rhamnose residues (C3 saccharide rhamnose, C28 saccharide rhamnose). To be noted: TBE 2%, pH 7.5, 30 degC, 18 h; LCMS/MS; negative controls 0.18, 0.17.

B1: 1010 (protein, listed as Paenibacillus mucilaginosus)
chain: MEENRLWNARWIWHQSYPWTSDPGTHEMVWFRREFDVTDPHLAQLVVDISADSRYRLFLNGDSVSVGPCKGDRSTHYYETVDLSERLIAGTNVLAAQVLHFAPSGPHLLGVSGPLSIHRAVSGAMFLEGVLIEGNGHSQTLHSDEKWLCKKMPGFKLVPSPIIFFLGGFEDTDGSGLDHGWELPGYDDEGWTNAVIVCETGDKFGQLTPWQLAPRPIPPMREEPASFRGITKADDRAAIPGYEAMLRGGDTRSVRVEAGQSIWLELDAGELVTGYVTLKLRGGRESRIKLLYAESYEEPASNLHHRVKGIRDDAENGILLGEADHYTVAGVGIGESVERYEPFDFRTFRYLRLEAAAKDEPLEIVLLSYRDTGYPLNAQAAFSCSDPDYAALWELSLKTLRRCMHETYEDCPYYEQLQYTMDTRLQMMFTYAVSADDRLARRALFDYHSSALPSGMLQSRYPSEYRQVIPSFSLYWIHMLYEHYWHFGDRELIRRYVPTMTGVLGWFRRMLTPEGLVAPTPRAYWPYFDWCIDWENGTPPAHAKGPLTLLSQMLAAALQTASQIYEAVGWSDAAREAKADANAVNEALLRLCWRPERGLFADGPEVEEFSQHAQVWGVVCGAVQGEDAVRLLERTIEPQAEHMAQLSVPASYELFRMLSRHGLYGKASNVIDRWKAFLHLHLTTLPEVTDDNHPRSDCHAWSALPLSEFTGEILGVRPGAPGYSEIIVSPQPLQLSWAKGSAATRHGSVEVEWTLDEEAVFRMSGNGPVGIPLLVVLPNGKQVEFRHGGKFEASAKLRA
Take B1: the “QS-17 (PAR %)” value in test [1] amounted to 4.796%. The “Peak75 (PAR %)” value in test [2] worked out at 2.559%. Moreover, the “Peak57 (PAR %)” value in test [3] turned out to be 2.845%. Further, the “ratio PP/QS-21” value in test [4] was 0.18.

B2: 1035 (protein, listed as Caulobacter segnis)
chain: MVKAYRPSLVLVLALAFGPAASAEPIWITHPAAPSAPTVVRFERDLTLARKPGHFPVRVSADNRFILLVNGRRVGAGPATSDLGHWRYATLDLAPYLTRGSNHLEAVVWNYVKPEEPIPDGLSPAQKNAAAFRNQRNQTGPVAQISARLGFWFSAPGAPELDSGPTWRVQLDSARSAAPVMGQVAGFYAAGPSEIVDARVPLAAPVAATPALAPGEPSPWALSADPLPQMSYRAVDPGLVARTNLDEAKAFPRQPVTIPARKTVKILLARPAMVAAYPTLRVTGGKDASIKLTYAEALIDAKGRKGLRSEVGDRTIRGLSDRFTADGGARAFAPLWWRTWRYLEIEVQTADQPLRLQGLDVAETDYPFGQVGKFVSDDPELNRIWDIGWRTARIDAHETYMDTAYYEQLQYVGDTRLQALISYAVSGDPRLATQAMDAFGASRALGGVTEGAYPSRTSNPIPPFSLLWIGMLHDYWSRHPDPEPARRHLARAREVLAWFDGYLGPDGLMRKTPGWSFVDWAVKDGRLLSRDAFPSYDAQGRSCLLSLAYLGALRDMTDLEAALGEPSLAGRDRSRAEAIAAAVRDQCWAPDRGLFADTPDKASFSQHTNALAVLYDVAAPKDAAAILDRTVGQAGIDAPTGMISTSYYYAWYLVRAFDHAGQADRYLSLLDTWRGLLALDYTTWPEERGNTRSDTHAWSAHPTADLLELVAGIRPDAPGYGRLRVEPHLGALRRLDAAAATPQGPVEVKYRRKGQRLVVEVRKPAGLSGVFVWRGQSHALLGARTRLDLPAGD
Regarding B2, the “QS-17 (PAR %)” value in test [1] is on record as 4.825%. In test [2], the “Peak75 (PAR %)” value is 2.427%. In addition, in test [3], the “Peak57 (PAR %)” value was found to be 2.987%. Also, the “ratio PP/QS-21” value in test [4] was 0.17.

B3: 1034 (protein, listed as Paenibacillus mucilaginosus)
chain: MSSTQTLRGRFDDPPAEYRAAPFWAWNDALREEEVLRQIGEMKEGGMGGFFIHSRDGLETEYMGTEWMKLVRAAVEEAEAQGMQAWLYDEDRWPSGFAGGLVQARGGDDYRAKGLTLEVVPAEKEGSGRLAERLADGAPVALFRAVIAERSLLSCTRLDLQVMFGSRMEAAAAAENTLLPPILEPQQEQHQDHETVYLLFRVEVSERSEWFNGEAPPDNLNPDTVRTFIELTYEAYEREVGGSFGSAVRGVFTDEPSIHDRHCRFTPGRAWLPWSGSFPAFYRERRGSDVLDTAPYLFFDGSLSPQARHDYWRTVTERFSEAYSGQIGEWCGSRGLAFTGHYLWENNLGTATRVCGAVMPNYRYQHVPGIDMLGEQTNETITVKQCTSVAHQYGRKVVLSETYGCTGWGFTFEGQRWVGDFQYVLGVNLRSQHLALYSIKGCRKRDYPPVFHYNTSWWKFSRVIEDYYARLSAVLTEGRPIRDVLVLHPSTTAWSMVGTGPYGFPARGKDRDVSAANRYGHEFNAFLRGLLGAHYDFDLGDEIILSEIGSVRQTEQTARLAVGMAEYRTVVLPEIRTMLRSTFLLLTGFLEAGGRVVAVGPPAELLEGRPAPELSRLYGHPGLTVVPDGAAAAAALESFLPRRVSIRHQAPQHTEPAEADKMLYMLQKADNRRVLFIVNNDREEEQQVTITLEGEGLLEEWNALTGEVTDVLVRRSQEGLLEFDASFGPADSKLYVLHTDRAPETGLNASPASEAPLLLVDPGTIRMELLQEPAGFTRTAPNALTLDRCSYRLRDGDWSGEMDVWQAQRAVREALGMRQVYGNGLEQRYRWVHEPHPGDGTPAAFRFDFEVTDVPEGEIHLVVESAGEYELGLNGNPVPGVPDGWFLDRSFDRVPLSGLRAGRNELVLSCRYHQRMEVEDLYLTGDFGVDEGRRITREPEKLQLGDWCLQGYPHYAGSMVYRFTVDGGLTPGGPAWLELGSFQAVTAEVRINRETAGHVPWRAANRLDISGRLRQGENLIEVEVMGSPRNLLGPFHHTSGDPSITSWSSFRKEGGDYSPAYRLRPYGLFGGIRLYRVQEQGGKGG
For B3, the “QS-17 (PAR %)” value in test [1] turned out to be 4.827%. For the same molecule, the “Peak75 (PAR %)” value in test [2] turned out to be 2.389%. Further, in test [3], the “Peak57 (PAR %)” value is 3.034%. The “ratio PP/QS-21” value in test [4] is 0.17.

B4: 1036 (protein, listed as Bacteroides cellulosilyticus)
chain: MNRYILFFFLILSTLTTLRAQQSRLVEVGNGYSQTSVNTTVFRNNSLVTQGDEQYISYYDGDGYLVLGKRKLDSDQWTLKRTQYKGNVKDAHNIISMMLDGEGYLHLSFDHHGHKLNYCRSTAPYTLELGDKEPMTGVDEGNVTYPEFYPLNGGDLLFVYRSGSSGRGNLVMNHYSVKEKKWNRVQDVLIDGEDQRNAYWQLYVDEQGTIHLSWVWRETWHVETNHDLCYARSYDNGVTWYKANGKKYDLPIRYNNAEYACRIPQNSELINQTSMSADASGNPYIATYWRDPDSEVPQYRIVWHDGQMWHNRQVSNRHTPFSLKGGGTKMIPIARPRIVVDGGEIFYIFRDEERGSRVSLAHAAAVGVGKWTFTDLTNFPVDAWEPSHDTELWKQKRRLHLFVQHTKQGDGERRVEFAPQPVYVLEVVKPKGD
B4: in test [1], the “QS-17 (PAR %)” value is given as 4.834%. In addition, in test [2], the “Peak75 (PAR %)” value was 2.444%. Moreover, in test [3], the “Peak57 (PAR %)” value came out at 2.852%. In test [4], the “ratio PP/QS-21” value worked out at 0.16.
